Assay results taken from publication PMC3970081 (Developmental cell, 2014).

Experiments:
[1] = target: T1, His-MB (AnkG MB domain, aa 2–791, His-tagged) (UniProt O70511 2-791); experiment: SPR
T1 sequence (looked up): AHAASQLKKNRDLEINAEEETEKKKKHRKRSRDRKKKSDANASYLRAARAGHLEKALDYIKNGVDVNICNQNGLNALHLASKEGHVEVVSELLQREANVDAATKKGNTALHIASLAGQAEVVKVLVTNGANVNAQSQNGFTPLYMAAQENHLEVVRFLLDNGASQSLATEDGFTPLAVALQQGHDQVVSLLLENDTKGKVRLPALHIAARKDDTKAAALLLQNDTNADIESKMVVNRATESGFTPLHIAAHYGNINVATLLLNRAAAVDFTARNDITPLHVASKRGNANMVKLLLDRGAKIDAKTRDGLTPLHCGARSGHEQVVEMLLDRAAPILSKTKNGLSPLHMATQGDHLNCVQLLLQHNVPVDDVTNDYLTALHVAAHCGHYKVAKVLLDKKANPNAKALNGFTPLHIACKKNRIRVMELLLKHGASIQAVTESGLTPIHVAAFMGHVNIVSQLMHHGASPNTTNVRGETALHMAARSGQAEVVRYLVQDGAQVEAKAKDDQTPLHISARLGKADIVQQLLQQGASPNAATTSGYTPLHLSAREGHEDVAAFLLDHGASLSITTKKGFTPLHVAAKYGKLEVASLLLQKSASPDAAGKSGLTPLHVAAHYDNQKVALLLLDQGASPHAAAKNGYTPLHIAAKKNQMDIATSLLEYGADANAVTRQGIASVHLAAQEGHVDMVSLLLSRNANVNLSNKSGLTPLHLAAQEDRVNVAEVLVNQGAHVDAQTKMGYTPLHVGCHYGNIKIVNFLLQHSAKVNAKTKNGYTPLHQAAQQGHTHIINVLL

[2] = target: T2, His-AR1 (AnkG aa 2–236, His-tagged) (UniProt O70511 2-236); experiment: SPR
T2 sequence (looked up): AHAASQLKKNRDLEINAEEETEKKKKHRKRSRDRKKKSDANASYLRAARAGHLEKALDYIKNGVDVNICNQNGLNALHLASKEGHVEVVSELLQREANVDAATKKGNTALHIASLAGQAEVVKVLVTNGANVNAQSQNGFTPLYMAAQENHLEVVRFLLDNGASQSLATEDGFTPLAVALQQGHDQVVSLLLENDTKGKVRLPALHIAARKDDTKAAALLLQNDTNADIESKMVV

B1: GST-Tail (GST-tagged KIF5B tail, aa 758–963) (domain or fragment)
chain: not shown
- Kd [1]: 2.4 nM
- koff [1]: 0.00059 s⁻¹
- kon [1]: 290000 M⁻¹ s⁻¹
- Kd [2]: 48 nM
- koff [2]: 0.0014 s⁻¹
- kon [2]: 32000 M⁻¹ s⁻¹
